18 sequences from the DeepSol protein solubility set can be followed below.

The series in a line: soluble on expression in E. coli; label from the status in PepcDB or PDB records.
For the sequence “KLEEEPYLKGTVNTVIYHNDTNLYTVLKVKVTETSEAIEDKAVSVTGYFPALQEEETYTFYGKIVTHPKFGLQFQAEHFKKEIPTTKEGIIQYLSSDLFEGIGKKTAEEIVKKLGDSAINKILADASVLYDVPRLSKKKADTLAGALQRHQGLEQIMISLNQFGFGPQLSMKIYQAYESETLEKIQENPYQLVKDVEGIGFGKADELGSRMGLSGNHPERVKAAILYTLETTCLSEGHTYIETEQLIIDTQSLLNQSAREGQRITEMDAANAIIALGENKDIVIEDGRCYFPSLFYAEQNVAKRVKHIASQTEYENQFPESEFLLALGELEERMDVQYAPSQKEAIQKALSSPMLLLTGGPGTGKTTVIRGIVELYGELHGVSLDPSAYKKDEAFPIVLAAPTGRAAKRMSESTGLPAVTIHRLLGWNGAEGFTHTEDQPIEGKLLIIDEASMLDIWLANHLFKAIPDHIQIIIVGDEDQLPSVGPGQVLRDLLASQVIPTVRLTDIYRQAEGSSIVELAHQMKNGLLPNNLTAPTKDRSFIRCGGSQIKEVVEKVVANALKKGYTAKDIQVLAPMYRGKAGINELNVMLQDILNPPKEKRRELKFGDVVYRTGDKILQLVNQPENNVFNGDIGEITSIFYAKENTEKEDMAVVSFDGNEMTFTKKDFNQFTHAYCCSIHKSQGSEFPIVVLPVVKGYYRMLRRNLLYTAITRAKKFLILCGEEEALEWGVKNNDATVRQTSLKNRLSVQVEEMDAELEALQKELPFSVHDANIGMEGITPFDFM”, the “soluble on expression in E. coli” value is on record as “not soluble”.

As to “MGSDKIHHHHHHMKDRSFDTLQEAVDVLSLTLNGPVTLEDREHRLLAYSKHSHETDSARIETIMNRQVPDRVIEGLWSSGLLQKLNQTDEPIRIPGIPAVGLGNRVAISIRQQQFVLGYIWVLELEEPLTDEQLNDLKDMVSLIRAMLIKQQETRFRRRLEREERWRHLYQGTETVAEVKRRFQAEGEPLPERGVVVQFFCERTIKEEHEQALSFISEKVKSRILVTFAMLIDGKWTVYLTDSLKKPLDEQVVKHFIDQWIRSWNDQFSYANVLAGVGQHCSQLTDVSESFHQAEKVIELKGEFAYELDKVYYFHELGFYRIIVDSVPILESETVQTLAAYDQKQGTELLQTLEAFLDVDGRNQAAAALLHVHPNTLNYRMKRIYELTGLDVKNMKDKVSLYLELKLRRWRNRVE”, the “soluble on expression in E. coli” value was “not soluble”.

In the case of “MAHHHHHHMIKLGNFAWQLLTRADGSNLGGVLRGSRKVCSLSVARLSKHPYKPKTKEVIHPHVTPPEFLSPSDCFEAKTDELQQYLPSNYYRTKWVESLRAGEHLGSDYPWNLLPHWKFWKKRKYNVVYGEVPWFVSKVKGVSYYQRLNVWMVQWVEEGVHRIRRFRCAFGVLQAKLAAEQFRRNLEESGRVDNRKSERQLRMDYIQKRDERLLRKKRYSKVSKGQF”, the “soluble on expression in E. coli” value is on record as “not soluble”.

Turning to “MQEISFRNDILPLKDKLFRLALRITLDRAEAEDVVQDTMIRVWNKRDEWSQFESVEAYCLIVAKNLAIDRSQKKEAQNVEITPEMEEEPDANSPYDQLVHDEKMNIINRLVNELPEKQRLIMQLRDIEGESYKKIATLLNLTEEQVKVNLFRARQKVKQRYLEIDEYGL”, the “soluble on expression in E. coli” value was “not soluble”.

“MGSDKIHHHHHHMTFILNSQNVFNYLLEKGLCNQSEQPPAKIEQLTAKNFNLLVTLPGDRKLLVKQERHNPEGKAAGEFLIEWRIQEFLQQFPNLSNYRSFLPEVLHFDVENSIIVFKYFDDYRDLMDFYTKGNSFNIEIATAIGNILGTIHRDTFNRQEYQEFFTKNSDNLMGDQVLHLVRRLERVEPEIFGIVPSDGLKFFALYQRYDSLGQAIAELGNAVTPSCLTHNDLKLNNILLHKDWQDSSNNIVRLIDWERSAWGDPAFDLGTLISSYVQIWLGSLVISNSLSIEESLRLAITPLEVLQPSISTLTQAYLKTFPEILDHRSDFLQRVVQFTGFTLIQQIQAMIQYQKSFGNMGIAMLQVAKTLLSRPVQSMPTIFGAAAVELGHLNNSPV”: the “soluble on expression in E. coli” value is given as “not soluble”.

For “MGSDKIHHHHHHMAGGSFMDDLRRGAGDLSVRASVREQDLNTYIMKVSCPARSGIVAAVSGYLARSGCNINDSSQFTDQETARFFMRLSFISEQGSGREALLDGFGSVAADFDMDYDIHDLSQKKKIVIMVSRFGHCLNDLLYRSRIGALPVEIVAVISNHLDYQKQVVNEDIPFHHIRVTPETKPEAEGAILQVVRDTGAELVVLARYMQVLSDQLCQEMSGRIINIHHSFLPSFKGANPYKQAYERGVRLIGATAHYVTADLDEGPIIEQDTIRVTHAQSGMDYVSLGRDVESQVLARAIHAHIHQRVFLNGNKTVVFPASPGEHVSERMG”, the “soluble on expression in E. coli” value is on record as “not soluble”.

With “MGSDKIHHHHHHMTERELEILALLKQDPLIPQQELADRLGISRSAVAGHIMNLTNKGVIRGKGYILAEAKYAMVIGGANMDILGRPASSLRVGDSNPGSVSCSPGGVGRNIAENLARLGSDTRLMTAVGKDAYGQQIVEHCQRAGIDMKPSLQLSDGVTSTYLSVLDGDSDMHVAINDMAILERLGVEQLKSQQEMLKRASLAIIDANLSEAALAYLLSNFADIPLFVDTVSCAKAEKIKPYLGAVHTLKPNLKEAEQLSGISIANYGELPVLANWFHEQGVKRVFLSLGIDGVFYSDGEEQAHIPAIPVEMVNANGAGDAFLAGLAHGFMQGWSTRQSTEFAMAAAVVALSDLATINPNMSEISVNRVIKESLC”, the “soluble on expression in E. coli” value was “not soluble”.

Turning to “MSSFHATTIFAVQHKGRSAMSGDGQVTFGQAVVMKHTARKVRKLFNGKVLAGFAGSVADAFTLFEKFEAKLEEYNGNLKRAAVELAKEWRSDKVLRKLEAMLIVMNQDTLLLVSGTGEVIEPDDGILAIGSGGNYALAAGRALKKHAGESMSASEIARAALETAGEICVYTNDQIILEELE”, the “soluble on expression in E. coli” value was “soluble”.

Regarding “MNSITVDFLNDQVFQGPMDGTEDKKDGNPKKSTCEKHWAVIDQHNVAICVQLCSFVEGEEKKCAEYYSDKVGGVLKFGRYSLKTIDVKTDLKEFTDKKGFTLYTVEITNSKKKDAPKKTVDILYFSGWPDHGAPQEAYPALEMLKFCESYKKNVLVHCSAGVGRTGTLVAIKYGIELCLKKKVI”, the “soluble on expression in E. coli” value was “not soluble”.

“MGSDKIHHHHHHMETDMPADMIQPLCEIDDLRIGFHGHDGALTEAVRGLSLTLHRGERLGIVGESGSGKSLTGRALLGLLPPAAQYRAKAMTFDGQDLLSMSARKRRQLCGQQMGMILQDPKYSLNPVMTVAQQMREVFDLHGPKLGRREMREQIIAALAAVHIRNPERVADAYPHELSGGMGQRVMIAMMVSSGPRLLVADEPTSALDVLVSMQVLGILDEMIEKHHTGLIFISHDLPLVMSFCDRVVVMFAGRVVETCAARDLVHARHPYTRGLLAASPPLIDPPDQLPVLKPDPAWLTQPAGASA”: the “soluble on expression in E. coli” value is recorded as “not soluble”.

With “MGSETKHSAKVKIVTRESPPSAKEHMRPTKTQILVPPTQSLPNGKKPNFGKSTKQRREPRERTSKTGHEDDKATMVTVNIDAFLHDKAPKKKSCKYKKKKTRQYQDRAAASIDSKPHVAGHTAFAGASFTTDIPHEAALPKPSFV”, the “soluble on expression in E. coli” value is “soluble”.

As to “MISQVRIMDVIKPLGSFIQQDGMPVFGHLSAIPRSLDLESFQYLNEMDNPVSKWRKHFDYKQFQFVSLVTPDYVVGIAIADIRYLASGFCYLFDIKRNALTEQQWLKPCQLGYQTQPSSWLSKAHLANNTIQFSIEEGQWHVQFVTPSVNANITLHPQPQSLPLMLSTPTGYSGWTYTQKHNAMTVTGNLFILGEEQDLSQVAAGYDFSAGYMRRETSWRWASINHKDGDKSLGLNLAAGVNETGFCENVLWVDGERHLLNPVQFQFSRQNPRTDWRITSEDGCVDLVFEPINQRSEKKNFWFLKSNFRQYIGHFSGFVVDGNGSKHELDGVVGLTEDHYAKW”, the “soluble on expression in E. coli” value is listed as “not soluble”.

As for “MGSDKIHHHHHHMTDVTQGRIPHAVYIDPGLPEYRDNPLIASLPPIFDTKQVITKLRLKPLYDSAERNLDGRLRVHAIARLLNRFFQPLSHHLELEQKISLILRQGYLGRNPEQGSYHLHLQNGFKRIQEEDLDAFVFDQARSSANSLSLFGCSGCGKSVTINRILSVYEQAIFHPEHNITQLTYLKIECPVDGDLDELCLSFFNEVDRVLHTQYSTSHGRKKLGTKRLMASMCQIANLHALGVLIIDEVQNLNEAKSGGAEKMHNFFVSLVNTIGVPVIQVGTHRARKFFQRTFRAARRITGFGSLLWDRLPNDHQWRQLLKLLWQYQWLRSAEPINDELVGTMYDLTQGVMDIVVKLYVLAQVRAIVTGMERITSELLKQVYHDEFKPVHPMLAALRSNNPGLLEQYDDLLMPEIEARMLSMVSSLEQADTYVDRPEISTDKSKKLLVLLSQMDIPEDIAIPLVDRVISRHPELSVAALMHKVTEYTADVTAEPPKINRIKRTQWLELPTNDLRYLYASSDKNNVYQLFKNQGLIYDLKSVSNRTG”, the “soluble on expression in E. coli” value is “not soluble”.

With “TAYLGPAGSWTHQACLDLYGADGLVPLSREALFAAYADGKVERACVPVATSVVGLTPYMEDVLALPRVVVVAEYPKMLGYSLLARPGTRREDIKEVHAHPVAFEEVRPWLEREMPGARRVPAASGGAAAQAVAASATQDKASFGPRVGASVYQLVSLADGIEEGPHNVTRWWVLGRDMP”, the “soluble on expression in E. coli” value is “not soluble”.

Take “MSKFTIGPLPCKNPESFTKLSAKKDTVRKTEPVEVVCRNVEGENNGECYKIKAPKTPFIINHLEKNYIPKPKETTKKRRAGEAGGVKREHSTSESDDQLEDANQPSTSSQQSSSRKKQRNQQDI”: the “soluble on expression in E. coli” value is recorded as “not soluble”.

Regarding “MKLSDMQLFRGLEEDDISSLLSCLNSVKRNYKKGEVILSEGSIIENIGIVLSGMAMISCNEIWGNTSILGSVAPGSVFAEVYACIPGQPMLVTVSAVEDTSVLFMNVGRVLTTCTNACPFHTNLARNLLTVCAHKSLQLSQRILHTSSKSIRGRLMSYFSECAKHAGSNSFLIPYNRQQLADYLNVDRSTMCNELSKMQKDGMIEYKKNRILLKD”, the “soluble on expression in E. coli” value was “not soluble”.

For “SRKMSLMRKEKLRGKAIKYVPASLLTKEFYSEAFTLNVDVIENIPKEFITAKMCEEAIQKNRHNIAYIPFEYRTEKIITEAIKNNGLALSEIDDTQKTEQLCLLAIRNHGGALQYVPYQLRTPEICLEAVKNFNGALNYVPEHIRTADFHTEYLIEDDWIDELLAGYDERLLKAVRKDARNLAAIPEEQRTYELCVEALLNNNDSDSVLKYVPDEFKTPEFYRNCVRINNKHFKDIPDSMKSYELCFEAVTNSPYALEYVPQRLLTKEIILAALSQKSMAVLDYVPPEFMTEEVYTTAFKNDIFGDIAYIFPEEYRTKENYLAMLGNPYSVCSTIIKTMPDYLKTDDFLVAAAKLRDEMLEYVPEYLLTQELCYELVKANGYALRITPPQFITEALCRTAVESDPRALCYVPEEFRTHEICDLALQKDMGLIKYAPADFAITADLCRRAVEADADAINQIPEQFRTEELWRIAVSEYGRLLEDLPASLMSEEFCRLAVANDGRALEFVPDKNKTKDVCFEAVRNSGHALKFVDVSKLTKEEYSKLCRLAFER”, the “soluble on expression in E. coli” value is given as “not soluble”.

With “MEEIDDKSKFKVPSWAAKPPNGAHLDVQKGDALIQKLLIDDKKAYYFGRNNKQVDFAVEHASCSRVHALLLYHGLLQRFALIDMDSSHGTFLGNVRLRPLEVVFMDPGTQFHLGASTRKYSVRLKTEHHVEDDPTVAASDEQLDHQTSYNTAQNRRIPQLPISVEEARRKKRPRGNVAFLEEEEVINPEDVDPSVGRFRNLVTTAIISTNPNKRPGDPKRSEPPRKIVRPGRELMSAPLSSTFGPMALNAAPDLELYGKLLPEPGHHQYVTSTATEDEADDHHKKRYAKEAWPGRKPGAGIF”, the “soluble on expression in E. coli” value is listed as “soluble”.
